# Data as given in publication PMC10786891, “Massively parallel profiling of RNA-targeting CRISPR-Cas13d”.
# Substitutions are numbered along the chain they refer to. In names and notes the source's numbering stands.
# T1: EsCas13d, nuclease-dead (Eubacterium siraeum, UniProt B0MS50, R295A;H300A;R849A;H854A)
# T1 sequence: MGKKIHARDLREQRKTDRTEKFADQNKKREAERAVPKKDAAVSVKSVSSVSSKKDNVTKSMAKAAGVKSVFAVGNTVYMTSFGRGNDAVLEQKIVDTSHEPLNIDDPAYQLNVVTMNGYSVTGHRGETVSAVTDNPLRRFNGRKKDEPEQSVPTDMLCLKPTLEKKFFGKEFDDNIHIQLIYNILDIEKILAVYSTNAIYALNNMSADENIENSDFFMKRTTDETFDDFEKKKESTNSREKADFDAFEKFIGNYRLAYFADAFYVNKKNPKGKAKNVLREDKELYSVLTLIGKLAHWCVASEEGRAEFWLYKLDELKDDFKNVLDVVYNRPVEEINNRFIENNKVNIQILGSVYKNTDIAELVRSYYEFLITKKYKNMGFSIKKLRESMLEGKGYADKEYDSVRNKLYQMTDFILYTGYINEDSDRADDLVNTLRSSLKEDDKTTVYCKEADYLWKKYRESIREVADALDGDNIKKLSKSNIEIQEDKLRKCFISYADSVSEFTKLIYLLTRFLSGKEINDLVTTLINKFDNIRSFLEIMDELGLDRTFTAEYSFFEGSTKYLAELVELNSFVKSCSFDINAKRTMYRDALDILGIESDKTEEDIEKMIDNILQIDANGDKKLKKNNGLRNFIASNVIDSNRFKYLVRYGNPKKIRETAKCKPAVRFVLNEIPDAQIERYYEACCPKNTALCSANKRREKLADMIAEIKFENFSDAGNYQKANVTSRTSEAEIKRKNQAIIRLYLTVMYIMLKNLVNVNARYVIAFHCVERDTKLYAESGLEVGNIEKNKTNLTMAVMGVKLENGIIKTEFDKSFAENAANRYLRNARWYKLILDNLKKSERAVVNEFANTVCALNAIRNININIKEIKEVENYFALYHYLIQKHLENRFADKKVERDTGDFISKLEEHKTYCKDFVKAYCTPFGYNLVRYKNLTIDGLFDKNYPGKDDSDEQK
# B1: target 1 MT 5'PFS GUU 3'PFS CCC (mixed)
# RNA 1: CACCCGUGCAAAAAUGCAGGGGUCUAAAACUGAGCGGAUAACCUCUCUAUGG
# RNA 2: GGGAAUGGAUCCACAUCUACGAAUUCGUUCCAUAGAGAGGUUAUCCGCUCACCCAGAUCGGAAGAGCACACGU
# B2: target 1 MT 5'PFS GGC 3'PFS CUU (mixed)
# RNA 1: B1 RNA 1
# RNA 2: B1 RNA 2 with U28G, U29C, C53U, C54U
# B3: target 1 MT 5'PFS ACC 3'PFS CUC (mixed)
# RNA 1: B1 RNA 1
# RNA 2: B1 RNA 2 with G27A, U28C, U29C, C53U
# B4: target 1 MT 5'PFS GUC 3'PFS UAU (mixed)
# RNA 1: B1 RNA 1
# RNA 2: B1 RNA 2 with U29C, C52U, C53A, C54U
# B5: target 1 MT 5'PFS UAA 3'PFS AAG (mixed)
# RNA 1: B1 RNA 1
# RNA 2: B1 RNA 2 with G27U, U28A, U29A, C52A, C53A, C54G
# B6: target 1 MT 5'PFS GUC 3'PFS UAG (mixed)
# RNA 1: B1 RNA 1
# RNA 2: B1 RNA 2 with U29C, C52U, C53A, C54G
# B7: target 1 MT 5'PFS GCC 3'PFS ACU (mixed)
# RNA 1: B1 RNA 1
# RNA 2: B1 RNA 2 with U28C, U29C, C52A, C54U
# B8: target 1 MT 5'PFS AAG 3'PFS CUC (mixed)
# RNA 1: B1 RNA 1
# RNA 2: B1 RNA 2 with G27A, U28A, U29G, C53U
# B9: target 1 MT 5'PFS GUC 3'PFS ACA (mixed)
# RNA 1: B1 RNA 1
# RNA 2: B1 RNA 2 with U29C, C52A, C54A
# B10: target 1 A14C,A16G (mixed)
# RNA 1: B1 RNA 1
# RNA 2: B1 RNA 2 with U29A, A36G, A38C, C54G
# B11: target 1 U11C,C21U (mixed)
# RNA 1: B1 RNA 1
# RNA 2: B1 RNA 2 with U29A, C31U, U41C, C54G
# B12: target 1 MT 5'PFS AUG 3'PFS CGG (mixed)
# RNA 1: B1 RNA 1
# RNA 2: B1 RNA 2 with G27A, U29G, C53G, C54G
# B13: target 1 MT 5'PFS GCA 3'PFS UUC (mixed)
# RNA 1: B1 RNA 1
# RNA 2: B1 RNA 2 with U28C, U29A, C52U, C53U
# B14: target 1 A9U,U19A (mixed)
# RNA 1: B1 RNA 1
# RNA 2: B1 RNA 2 with U29A, U33A, A43U, C54G
# B15: target 1 MT 5'PFS UAA 3'PFS AAC (mixed)
# RNA 1: B1 RNA 1
# RNA 2: B1 RNA 2 with G27U, U28A, U29A, C52A, C53A
# B16: target 1 MT 5'PFS GCA 3'PFS UUA (mixed)
# RNA 1: B1 RNA 1
# RNA 2: B1 RNA 2 with U28C, U29A, C52U, C53U, C54A
# B17: target 1 MT 5'PFS GAC 3'PFS CUG (mixed)
# RNA 1: B1 RNA 1
# RNA 2: B1 RNA 2 with U28A, U29C, C53U, C54G
# B18: target 1 MT 5'PFS GAC 3'PFS CUA (mixed)
# RNA 1: B1 RNA 1
# RNA 2: B1 RNA 2 with U28A, U29C, C53U, C54A
# B19: target 1 MT 5'PFS CCG 3'PFS AUC (mixed)
# RNA 1: B1 RNA 1
# RNA 2: B1 RNA 2 with G27C, U28C, U29G, C52A, C53U
# B20: target 1 MT 5'PFS GAC 3'PFS CUC (mixed)
# RNA 1: B1 RNA 1
# RNA 2: B1 RNA 2 with U28A, U29C, C53U
# B21: target 1 MT 5'PFS GUG 3'PFS GGA (mixed)
# RNA 1: B1 RNA 1
# RNA 2: B1 RNA 2 with U29G, C52G, C53G, C54A
# B22: target 1 MT 5'PFS GCU 3'PFS CGA (mixed)
# RNA 1: B1 RNA 1
# RNA 2: B1 RNA 2 with U28C, C53G, C54A
# B23: target 1 MT 5'PFS AAG 3'PFS CUG (mixed)
# RNA 1: B1 RNA 1
# RNA 2: B1 RNA 2 with G27A, U28A, U29G, C53U, C54G
# B24: target 1 MT 5'PFS GCU 3'PFS CGU (mixed)
# RNA 1: B1 RNA 1
# RNA 2: B1 RNA 2 with U28C, C53G, C54U
# B25: target 1 MT 5'PFS GUU 3'PFS CCU (mixed)
# RNA 1: B1 RNA 1
# RNA 2: B1 RNA 2 with C54U
# B26: target 1 MT 5'PFS CCA 3'PFS AAU (mixed)
# RNA 1: B1 RNA 1
# RNA 2: B1 RNA 2 with G27C, U28C, U29A, C52A, C53A, C54U
# B27: target 1 MT 5'PFS GUC 3'PFS ACU (mixed)
# RNA 1: B1 RNA 1
# RNA 2: B1 RNA 2 with U29C, C52A, C54U
# B28: target 1 MT 5'PFS GCC 3'PFS ACA (mixed)
# RNA 1: B1 RNA 1
# RNA 2: B1 RNA 2 with U28C, U29C, C52A, C54A
# B29: target 1 MT 5'PFS AUA 3'PFS AGG (mixed)
# RNA 1: B1 RNA 1
# RNA 2: B1 RNA 2 with G27A, U29A, C52A, C53G, C54G
# B30: target 1 MT 5'PFS GUC 3'PFS UAC (mixed)
# RNA 1: B1 RNA 1
# RNA 2: B1 RNA 2 with U29C, C52U, C53A
# B31: target 1 MT 5'PFS AGC 3'PFS UAG (mixed)
# RNA 1: B1 RNA 1
# RNA 2: B1 RNA 2 with G27A, U28G, U29C, C52U, C53A, C54G
# B32: target 1 MT 5'PFS AUA 3'PFS CGG (mixed)
# RNA 1: B1 RNA 1
# RNA 2: B1 RNA 2 with G27A, U29A, C53G, C54G
# B33: target 1 MT 5'PFS GCU 3'PFS CGC (mixed)
# RNA 1: B1 RNA 1
# RNA 2: B1 RNA 2 with U28C, C53G
# B34: target 1 MT 5'PFS GUC 3'PFS UAA (mixed)
# RNA 1: B1 RNA 1
# RNA 2: B1 RNA 2 with U29C, C52U, C53A, C54A
# B35: target 1 MT 5'PFS GGC 3'PFS CUC (mixed)
# RNA 1: B1 RNA 1
# RNA 2: B1 RNA 2 with U28G, U29C, C53U
# B36: target 1 insU 3' of 15,insG 3' of 6 (mixed)
# RNA 1: B1 RNA 1
# RNA 2: GGGAAUGGAUCCACAUCUACGAAUUCGUACCAUAGAGUAGGUUAUCCGGCUCACCGAGAUCGGAAGAGCACACGU
# B37: target 1 MT 5'PFS CCG 3'PFS AUU (mixed)
# RNA 1: B1 RNA 1
# RNA 2: B1 RNA 2 with G27C, U28C, U29G, C52A, C53U, C54U
# B38: target 1 MT 5'PFS UAA 3'PFS AAU (mixed)
# RNA 1: B1 RNA 1
# RNA 2: B1 RNA 2 with G27U, U28A, U29A, C52A, C53A, C54U
# B39: target 1 MT 5'PFS GCA 3'PFS ACA (mixed)
# RNA 1: B1 RNA 1
# RNA 2: B1 RNA 2 with U28C, U29A, C52A, C54A
# B40: target 1 MT 5'PFS UAA 3'PFS AAA (mixed)
# RNA 1: B1 RNA 1
# RNA 2: B1 RNA 2 with G27U, U28A, U29A, C52A, C53A, C54A
# Target: T1, EsCas13d, nuclease-dead
# Assay: crRNA (strand 1, pre-loaded); Mg2+; 40 mM Tris-HCl pH 7.5, 150 mM NaCl, 6 mM MgCl2, 1 mM DTT, 0.1% Tween-20, 0.2 mg/ml BSA; 25 C; 10 min per concentration, then washed
# Settings: tags: His6-TwinStrep-SUMO cleaved; N-terminal SNAP kept (SNAP-Surface 488); label: 3' end held by stalled T7 RNA polymerase
row,Binder,Kd [nM]
1,B1,26.5 ± 8.5
2,B2,11.3 ± 2.25
3,B3,~12
4,B4,16.1 ± 3.3
5,B5,66 ± 26
6,B6,17.6 ± 3.35
7,B7,11.2 ± 2.05
8,B8,38.5 ± 13.5
9,B9,~56
10,B10,~90
11,B11,9.9 ± 0.4
12,B12,47.5 ± 22.5
13,B13,9.95 ± 1.2
14,B14,52 ± 10
15,B15,40 ± 11
16,B16,7.65 ± 1.2
17,B17,19 ± 6.5
18,B18,15.5 ± 5
19,B19,~8.65
20,B20,24 ± 10

row,Binder,Kd [nM]
1,B21,20.3 ± 2.5
2,B22,49.5 ± 17
3,B23,16 ± 5
4,B24,33.5 ± 8
5,B25,11.6 ± 1.9
6,B26,7.3 ± 2.35
7,B27,16.9 ± 2.05
8,B28,~64
9,B29,~90
10,B30,15.1 ± 3.8
11,B31,17 ± 6.5
12,B32,27 ± 6.5
13,B33,42.5 ± 15
14,B34,16 ± 4.3
15,B35,17.1 ± 7.05
16,B36,14.9 ± 0.8
17,B37,3.75 ± 1.75
18,B38,55 ± 16
19,B39,25.5 ± 4.5
20,B40,47 ± 15.5
